Earlier results as cited in patent US11474093B2, “Analysis method of protein-protein interaction and a screening method of protein-protein interaction inhibitors using a nanopore” (Korea Research Institute of Bioscience and Biotechnology, priority 2016, dated 2022).
Like-named read-outs stand apart in the source and are kept apart here.

Molecular target: MDM2 (Homo sapiens, UniProt Q00987)
Sequence (Q00987 whole entry): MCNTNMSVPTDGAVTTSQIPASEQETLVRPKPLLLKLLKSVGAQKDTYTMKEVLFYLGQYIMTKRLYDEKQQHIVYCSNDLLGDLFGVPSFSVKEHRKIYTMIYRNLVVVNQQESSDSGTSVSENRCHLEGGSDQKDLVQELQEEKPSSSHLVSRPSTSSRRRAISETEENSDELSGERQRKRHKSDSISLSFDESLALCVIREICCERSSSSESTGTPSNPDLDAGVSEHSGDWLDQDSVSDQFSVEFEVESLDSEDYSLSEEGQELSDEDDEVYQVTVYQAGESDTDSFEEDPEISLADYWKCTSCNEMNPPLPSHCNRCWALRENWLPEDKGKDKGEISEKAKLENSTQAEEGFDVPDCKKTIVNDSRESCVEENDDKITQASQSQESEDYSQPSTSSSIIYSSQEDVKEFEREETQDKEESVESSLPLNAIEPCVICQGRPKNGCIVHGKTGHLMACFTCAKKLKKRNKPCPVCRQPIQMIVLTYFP

Substance: p53TAD: residues 1 to 73 of p53 transactivation domain (TAD)
- Kd (read-out: Kd of the interaction between MDM2 and p53TAD): 600 nM
- Kd (read-out: dissociation coefficient (Kd) with MDM2): ~600 nM
